The target in test [1] is T1, CCR5 on CD4+ T cells of rhesus macaques (rhesus macaque, UniProt P61813 1-352).
T1 construct: also called surface CCR5; CD195
Nature of the test: CCR5 receptor occupancy by flow cytometry on blood CD4+ T cells after a single 10 mg/kg s.c. dose in rhesus macaques. For orientation: In flow cytometry, cells or beads pass a laser one at a time.

Test [2] has as its target T1, CCR5 on CD4+ T cells of rhesus macaques. Nature of the test: CCR5 receptor occupancy by flow cytometry on blood, rectal and vaginal CD4+ T cells after a single 10 mg/kg s.c. dose in rhesus macaques.

The record followed here is patent US20240392015A1 (OREGON HEALTH AND SCIENCE UNIVERSITY, published 2024).

B1: leronlimab (human IgG4 Fc) (antibody, V domains shown)
VH: EVQLVESGGGLVKPGGSLRLSCAASGYTFSNYWIGWVRQAPGKGLEWIGDIYPGGNYIRNNEKFKDKTTLSADTSKNTAYLQMNSLKTEDTAVYYCGSSFGSNYVFAWFTYWGQGTLVTVSS
VL: DIVMTQSPLSLPVTPGEPASISCRSSQRLLSSYGHTYLHWYLQKPGQSPQLLIYEVSNRFSGVPDRFSGSGSGTDFTLKISRVEAEDVGVYYCSQSTHVPLTFGQGTKVEIK
notes: also called PRO140; PRO 140
In the case of B1, the binding result in test [1] was “binds”.

B2: macaque IgG4 LS leronlimab (antibody, V domains shown)
VH: B1 VH
VL: DIVMTQSPLSLPVTPGEPASISCRSSQRLLSSYGHTYLHWYLQKPGQSPQLLIYEVSNRFSGVPDRFSGSGSGTDFTLKISRVEAEDVGVYYCSQSTHVPLTFGQGTKVEIKR
notes: also called MacLS; macaque IgG4 LS variant
As to B2, the binding result in test [2] is “binds”.
